Results taken from US20180346564A1 (TEIJIN PHARMA, published 2018).

T1: monophosphorylated tau peptide 1×P, TSPRHLSNVS(pS)TGSIDMVDSPC (human, phosphoserine (pS) at peptide position 11 (tau Ser413))
T1 construct: also called 1xP; 1×P peptide
T1 peptide: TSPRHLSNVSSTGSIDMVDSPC


Legend:
[1] = biological target: Ser413 phosphorylated tau protein (pSer413-Tau) derived from Alzheimer's disease patient brain homogenate (human, UniProt P10636-8 2-441, limits assumed, phosphoserine at Ser413 (numbering of SEQ ID NO: 1)); test: cell-based or functional assay
[2] = biological target: T1, monophosphorylated tau peptide 1×P, …; test: SPR Biacore, 1×P peptide immobilized
Description: Antibody binding to immobilized, phosphorylated Tau peptide was measured using a Series S Sensor Chip CM3 (GE Healthcare, BR100536). The chip was activated using an amine coupling kit, then 30 μg/mL phosphorylated Tau peptide (SEQ ID NO:75) in 10 mM sodium acetate, pH 5.0 was injected until 51 RU had been immobilized. The chip was blocked with ethanolamine. A negative control reference surface was prepared similarly, using non-phosphorylated Tau peptide ([…], SEQ ID NO:77). […] Each concentration and several buffer blanks were injected for 3 minutes at a flowrate of 45 μL/minute. The dissociation of the antibody was monitored for 15 minutes. The surface was regenerated with a 30 second injection of 100 mM hydrochloric acid (Fisher Scientific, SA56-1, Waltham, Mass.).
The data were processed and fit using Biacore™ M T200 Evaluation Software version 2.0 or Biacore™ 4000 Evaluation Software version 1.1 (GE Healthcare). The data were “double referenced” by subtracting the response from a negative control flowcell and subtracting the response from a buffer injection or the average response from two buffer injections. The data were then fit with the “1:1 Binding” model to determine the association rate constant, kₐ (M⁻¹s⁻¹, where “M” equals molar and “s” equals seconds) and the dissociation rate constant, kd (s⁻¹). […]

[3] = biological target: T2, recombinant human phosphorylated Tau protein (80AWB) (human, UniProt P10636-8 1-441, limits assumed, phosphorylated; sites not stated); test: SPR Biacore, phosphorylated Tau protein immobilized
T2 construct: also called Protein Immobilized
Description: Antibody binding to immobilized, phosphorylated Tau protein was measured using Series S Sensor Chips NTA (GE Healthcare, BR100034). The running buffer for the immobilization was 10 mM HEPES, 150 mM […], 0.05% v/v Surfactant P20, pH 7.4 (GE Healthcare, BR100671) and the flow rate was 10 μL/minute. 350 mM EDTA was injected for 1 minute to clean the chip, followed by a 2 minute injection of 0.5 mM NiCl₂ (GE Healthcare, NTA Reagent Kit) to prepare the chip to capture his-tagged protein. The chip was activated according to the manufacturer's instructions using an amine coupling kit (GE Healthcare, BR100633), then 300 nM phosphorylated Tau protein (80AWB) was injected until the desired amount of protein had been immobilized. The chip was blocked with ethanolamine from the amine coupling kit. Each experiment used multiple levels of immobilized phosphorylated Tau protein. The lowest level varied from 54 resonance units (RU) to 452 RU, and the highest level varied from 463 RU to 1020 RU. […] Each concentration and several buffer blanks were injected for 3 minutes at a flowrate of […]. The dissociation of the antibody was monitored for 15 minutes, then the surface was regenerated with a 30 second to 1 minute injection of 100 mM CAPS (Sigma, C6070), 1 M KCl (Sigma, P9541), 1 mM EDTA, 2 mM DTT, pH 10.5. […]

T2 sequence (P10636 other isoform, or with tags, fused parts or gaps limits assumed): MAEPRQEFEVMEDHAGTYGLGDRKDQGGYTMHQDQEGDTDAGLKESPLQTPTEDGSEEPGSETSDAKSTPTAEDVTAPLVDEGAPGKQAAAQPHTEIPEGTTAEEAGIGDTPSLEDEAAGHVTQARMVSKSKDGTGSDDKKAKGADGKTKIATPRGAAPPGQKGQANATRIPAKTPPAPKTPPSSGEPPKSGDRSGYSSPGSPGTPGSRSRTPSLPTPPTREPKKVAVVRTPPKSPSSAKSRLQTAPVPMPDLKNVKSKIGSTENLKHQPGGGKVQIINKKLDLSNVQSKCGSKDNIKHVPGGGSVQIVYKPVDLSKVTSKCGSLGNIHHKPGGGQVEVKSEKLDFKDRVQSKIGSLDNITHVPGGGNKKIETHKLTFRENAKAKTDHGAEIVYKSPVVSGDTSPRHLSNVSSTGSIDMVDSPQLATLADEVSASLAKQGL
Chain of Ser413 phosphorylated tau protein (pSer413-Tau) derived from Alzheimer's disease patient brain homogenate (P10636 other isoform, or with tags, fused parts or gaps limits assumed): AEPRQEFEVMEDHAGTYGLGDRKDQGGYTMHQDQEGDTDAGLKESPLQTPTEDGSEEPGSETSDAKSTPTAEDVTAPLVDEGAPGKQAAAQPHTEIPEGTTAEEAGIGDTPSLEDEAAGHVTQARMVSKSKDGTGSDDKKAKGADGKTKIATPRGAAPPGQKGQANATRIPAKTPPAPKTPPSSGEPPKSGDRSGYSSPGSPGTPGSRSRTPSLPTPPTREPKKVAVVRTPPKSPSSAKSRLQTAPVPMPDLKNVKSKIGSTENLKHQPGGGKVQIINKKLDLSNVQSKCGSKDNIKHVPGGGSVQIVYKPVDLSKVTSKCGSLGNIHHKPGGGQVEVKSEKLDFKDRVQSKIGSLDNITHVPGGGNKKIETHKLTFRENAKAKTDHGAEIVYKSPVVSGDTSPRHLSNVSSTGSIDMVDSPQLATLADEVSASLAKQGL

IC50 of the fall of the AT8 AlphaLISA signal with the antibody concentration (signal falls from about 7500 to about 4400 at the highest concentration, about 400 nM; no lower plateau) [1] | Binder | binding result [2] | binding result [3]
175 nM | Humanized × [MAPT_H] mAb (Ta1505 VL46/VH11) IgG4 S228P/Kappa (CX) (antibody) heavy: not shown light: DIVMTQSPLSLPVTLGEPASISCRSSQSIVHSNGNTYLEWYLQKPGQSPQLLIYTVSNRFSGVPDRFSGSGSGTDFTLKISRVEAEDLGVYYCFQGSHLPLTFGGGTKVEIKRTVAAPSVFIFPPSDEQLKSGTASVVCLLNNFYPREAKVQWKVDNALQSGNSQESVTEQDSKDSTYSLSSTLTLSKADYEKHKVYACEVTHQGLSSPVTKSFNRGEC |  | 
 | Humanized × [MAPT_H] mAb (Ta1505-VL46_G34S/VH11) IgG4 S228P/Kappa (CX) (antibody, V domains shown, also called hu VL46/VH11 G34S IgG4) VH: EVQLVESGGGLVQPGGSLRLSCAASGFTFSSFALNWVRQAPGKGLEWVGHIRSKTNNYATFYAASVKDRFTVSRDDSQNTAYLQMNSLKTEDTATYYCVRRGPRDSWFGYWGQGTLVTVSS VL: DIVMTQSPLSLPVTLGEPASISCRSSQSIVHSNSNTYLEWYLQKPGQSPQLLIYTVSNRFSGVPDRFSGSGSGTDFTLKISRVEAEDLGVYYCFQGSHLPLTFGGGTKVEIKR | no binding (tested: 0.37 nM to 30 nM antibody) | no binding (tested: 0.37 nM to 30 nM antibody)
